# Measured values taken from publication PMC3024946, “Hydroxyproline-containing collagen analogs trigger the release and activation of collagen-sequestered proMMP-2 by competition with prodomain-derived peptide P33-42” (Fibrogenesis & Tissue Repair, 2011).
# B1: CIII: native human collagen type III (protein)
# chain: QQEAVEGGCSHLGQSYADRDVWKPEPCQICVCDSGSVLCDDIICDDQELDCPNPEIPFGECCAVCPQPPTAPTRPPNGQGPQGPKGDPGPPGIPGRNGDPGIPGQPGSPGSPGPPGICESCPTGPQNYSPQYDSYDVKSGVAVGGLAGYPGPAGPPGPPGPPGTSGHPGSPGSPGYQGPPGEPGQAGPSGPPGPPGAIGPSGPAGKDGESGRPGRPGERGLPGPPGIKGPAGIPGFPGMKGHRGFDGRNGEKGETGAPGLKGENGLPGENGAPGPMGPRGAPGERGRPGLPGAAGARGNDGARGSDGQPGPPGPPGTAGFPGSPGAKGEVGPAGSPGSNGAPGQRGEPGPQGHAGAQGPPGPPGINGSPGGKGEMGPAGIPGAPGLMGARGPPGPAGANGAPGLRGGAGEPGKNGAKGEPGPRGERGEAGIPGVPGAKGEDGKDGSPGEPGANGLPGAAGERGAPGFRGPAGPNGIPGEKGPAGERGAPGPAGPRGAAGEPGRDGVPGGPGMRGMPGSPGGPGSDGKPGPPGSQGESGRPGPPGPSGPRGQPGVMGFPGPKGNDGAPGKNGERGGPGGPGPQGPPGKNGETGPQGPPGPTGPGGDKGDTGPPGPQGLQGLPGTGGPPGENGKPGEPGPKGDAGAPGAPGGKGDAGAPGERGPPGLAGAPGLRGGAGPPGPEGGKGAAGPPGPPGAAGTPGLQGMPGERGGLGSPGPKGDKGEPGGPGADGVPGKDGPRGPTGPIGPPGPAGQPGDKGEGGAPGLPGIAGPRGSPGERGETGPPGPAGFPGAPGQNGEPGGKGERGAPGEKGEGGPPGVAGPPGGSGPAGPPGPQGVKGERGSPGGPGAAGFPGARGLPGPPGSNGNPGPPGPSGSPGKDGPPGPAGNTGAPGSPGVSGPKGDAGQPGEKGSPGAQGPPGAPGPLGIAGITGARGLAGPPGMPGPRGSPGPQGVKGESGKPGANGLSGERGPPGPQGLPGLAGTAGEPGRDGNPGSDGLPGRDGSPGGKGDRGENGSPGAPGAPGHPGPPGPVGPAGKSGDRGESGPAGPAGAPGPAGSRGAPGPQGPRGDKGETGERGAAGIKGHRGFPGNPGAPGSPGPAGQQGAIGSPGPAGPRGPVGPSGPPGKDGTSGHPGPIGPPGPRGNRGERGSEGSPGHPGQPGPPGPPGAPGPCCGGVGAAAIAGIGGEKAGGFAPYYG
# Columns and labels:
# Parameters in all cases: species or system human
# ActMMP-2 = test: Solid-phase binding of [125I]-actMMP-2 to immobilized collagens/peptides (microwells); details: ActMMP-2, 2 ng/well; coated wells; 4°C, 2 h; residual radioactivity; mean ± SD, at least five experiments in triplicate
# Method: (§1) Human recombinant proMMPs and in vitro activated MMPs were obtained from Invitek and were labeled with the [^125I]-Bolton-Hunter reagent according to the manufacturer's instructions (PerkinElmer, Rodgau, Germany) before the buffer was exchanged for phosphate-buffered saline (PBS) with 0.05% (vol/vol) Tween 20 by gel filtration as described previously. Specific radioactivity for [^125I]-MMPs was 3-9 × 10^4 cpm/ng. Precipitation with 10% (wt/vol) trichloroacetic acid and 200 μg of BSA recovered 96% to 100% of protein-bound radioactivity. Aliquots of labeled MMPs were frozen and stored at -80°C. […]
# (§2) The following collagen analogs and control peptides were synthesized as described previously: (GPO)10, H-Gly-Cys-Hyp-(Gly-Pro-Hyp)10-Gly-Cys-Hyp-Gly-NH2; (GPP)10, H-Gly-Cys-Pro-(Gly-Pro-Pro)10-Gly-Cys-Pro-Gly-NH2; and GAP, H-Gly-Ala-Cys-(Gly-Ala-Pro)5-Gly-Phe-Hyp-Gly-Glu-Arg-(Gly-Ala-Pro)5-NH2. […] Graphs were calculated from the primary data using a custom fitting program written by D.A. Slatter (Department of Biochemistry, University of Cambridge, Cambridge, UK [48]) to model different possible transitions. […]
# (§3) ProMMP-2 and proMMP-9 or actMMP-2 and actMMP-9 were bound to nitrocellulose and polystyrene-immobilized native collagens, CI chains, CB peptides or structural analogs. […] Membranes were washed again and air-dried, and bound MMP was monitored by autoradiography. […]
# ActMMP-9 = test: Solid-phase binding of [125I]-actMMP-9 to immobilized collagens/peptides (microwells); details: ActMMP-9, 2 ng/well; coated wells; 4°C, 2 h; residual radioactivity; mean ± SD, at least five experiments in triplicate
# Method: as §1, §2, §3
# ProMMP-2 = test: Solid-phase binding of [125I]-proMMP-2 to immobilized collagens/peptides (microwells); details: ProMMP-2, 2 ng/well; coated wells; 4°C, 2 h; residual radioactivity; mean ± SD, at least five experiments in triplicate
# Method: as §1, §2, §3
# ProMMP-9 = test: Solid-phase binding of [125I]-proMMP-9 to immobilized collagens/peptides (microwells); details: ProMMP-9, 2 ng/well; coated wells; 4°C, 2 h; residual radioactivity; mean ± SD, at least five experiments in triplicate
# Method: as §1, §2, §3
molecule,measurement,setting,value
B1,Binding of [125I]-MMPs,ActMMP-2,14.3 ± 5.8 % of maximum control
same,Binding of [125I]-MMPs,ActMMP-9,5.0 ± 0.4 % of maximum control
same,Binding of [125I]-MMPs,ProMMP-2,40.0 ± 5.0 % of maximum control
same,Binding of [125I]-MMPs,ProMMP-9,45.0 ± 2.0 % of maximum control
